T1: Sortilin SORTECD_HIS (human, UniProt Q99523 78-755)
T1 construct: also called Sortilin-ECD-His; HIS-tagged Sortilin ECD
T1 sequence: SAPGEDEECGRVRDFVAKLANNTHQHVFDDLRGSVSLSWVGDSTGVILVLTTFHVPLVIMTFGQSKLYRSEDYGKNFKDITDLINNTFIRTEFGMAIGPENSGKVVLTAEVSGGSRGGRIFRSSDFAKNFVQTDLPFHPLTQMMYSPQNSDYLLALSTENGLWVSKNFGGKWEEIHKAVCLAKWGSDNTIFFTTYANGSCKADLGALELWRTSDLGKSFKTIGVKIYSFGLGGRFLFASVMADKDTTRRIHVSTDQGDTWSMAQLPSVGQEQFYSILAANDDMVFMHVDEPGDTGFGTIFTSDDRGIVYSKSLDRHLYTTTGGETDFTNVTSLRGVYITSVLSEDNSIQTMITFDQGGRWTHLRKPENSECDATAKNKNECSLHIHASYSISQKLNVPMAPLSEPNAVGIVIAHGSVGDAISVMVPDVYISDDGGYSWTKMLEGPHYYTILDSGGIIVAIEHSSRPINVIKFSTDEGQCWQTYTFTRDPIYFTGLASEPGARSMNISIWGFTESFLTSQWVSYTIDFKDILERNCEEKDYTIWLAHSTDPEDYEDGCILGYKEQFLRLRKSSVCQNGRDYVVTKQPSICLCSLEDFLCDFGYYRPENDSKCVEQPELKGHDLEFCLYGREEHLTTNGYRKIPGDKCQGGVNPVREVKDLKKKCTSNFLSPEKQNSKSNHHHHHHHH

B1: 1289 (antibody, V domains shown)
VH: EVQLLESGGGLVQPGGSLRLSCAASGFTFSSFAMSWVRQAPGKGLEWVSAISGSGGSTYYADSVKGRFTISRDNSKNTLSLQMNSLRAEDTAVYYCATPITLVRGVGAFDIWGQGTMVTVSS
VL: not shown
notes: the sheets print 1289 only, the text names its one 1289 antibody 1289-02; also called IgG1-6003-1289; Antibody 1289-02
B2: 1320 (antibody, V domains shown)
VH: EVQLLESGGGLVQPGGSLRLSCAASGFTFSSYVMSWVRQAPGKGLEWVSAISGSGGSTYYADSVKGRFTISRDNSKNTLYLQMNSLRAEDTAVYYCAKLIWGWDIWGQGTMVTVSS
VL: EIVLTQSPATLSLSPGERATLSCRASQSVSSYLAWYQQRPGQAPRLLIYDASNRATGIPARFSGSGSGTDFTLSISSLEPEDFAVYYCQQRTNWSITFGQGTRLEIK
notes: also called Antibody 1320; Ab 1320

Biological target: T1, Sortilin SORTECD_HIS
Assay: HTRF, displacement of PGRN from His-tagged Sortilin ECD
Method: Dose-response evaluation of antibodies was performed with ten concentrations covering 50 pM to 1 μM in a 3-fold dilution curve. The half-maximal inhibitory concentration (IC50) values were calculated by non-linear regression using sigmoidal concentration response (variable slope) in XLfit 4 (IDBS, UK).
Experiments were performed in assay buffer (50 mM Phosphate, pH 7.0, 0.1% BSA) in a total volume of 20 μl in a Greiner 384 well, white, low volume microtiter plate, (784075, Greiner).

% inh highest conc | Binder
98% | B1
75% | B2

— patent US20170267761A1 (H LUNDBECK A S, published 2017)
